Results as given in patent publication US20250376511A1 (Sanofi, published 2025).
Read-outs that look alike come from different tables or passages of the source.

T1: Human active C1s (Complement Technology) (human, UniProt P09871 16-688)
T1 sequence: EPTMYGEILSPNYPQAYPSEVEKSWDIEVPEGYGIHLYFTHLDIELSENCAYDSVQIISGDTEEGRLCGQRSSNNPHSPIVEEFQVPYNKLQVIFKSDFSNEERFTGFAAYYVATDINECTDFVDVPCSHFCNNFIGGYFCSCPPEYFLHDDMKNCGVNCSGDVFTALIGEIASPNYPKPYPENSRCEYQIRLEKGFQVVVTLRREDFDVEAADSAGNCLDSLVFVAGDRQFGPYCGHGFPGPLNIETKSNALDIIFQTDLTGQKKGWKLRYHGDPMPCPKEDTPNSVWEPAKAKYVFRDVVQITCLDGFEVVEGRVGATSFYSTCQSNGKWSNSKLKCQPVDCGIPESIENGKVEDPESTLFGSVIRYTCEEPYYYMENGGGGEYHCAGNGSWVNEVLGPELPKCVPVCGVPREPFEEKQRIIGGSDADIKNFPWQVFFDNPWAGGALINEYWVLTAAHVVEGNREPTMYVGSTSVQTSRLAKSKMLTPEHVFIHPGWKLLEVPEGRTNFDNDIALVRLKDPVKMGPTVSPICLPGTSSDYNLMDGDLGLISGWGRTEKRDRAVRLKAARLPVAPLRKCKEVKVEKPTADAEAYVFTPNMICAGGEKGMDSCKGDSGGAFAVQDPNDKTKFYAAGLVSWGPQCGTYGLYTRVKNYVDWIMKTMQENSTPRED

B1: aC1s_D32S IgG1-dK (antibody, V domains shown)
VH: QVQLVQSGAEVKKPGASVKLSCTASGFNIKDDYIHWVKQAPGQGLEWIGRIDPADGHTKYAPKFQVKVTITADTSTSTAYLELSSLRSEDTAVYYCARYGYGREVFDYWGQGTTVTVSS
VL: DIVLTQSPDSLAVSLGERATISCKASQSVDYSGDSYMNWYQQKPGQPPKILIYDASNLESGIPARFSGSGSGTDFTLTISSLEPEDFAIYYCQQSNEDPWTFGGGTKVEIK
notes: Bivalent monospecific human IgG1
B2: aC1s_088 × 531v25.v6 IgG1-NNAS/dK (bispecific antibody, V domains shown)
VH 1: QVQLVQSGAEVKKPGASVKLSCTASGFNIKDDYIHWVKEAPGQGLEWIGRIDPADGHTKYAPKFQVKVTITADTSTSTAYLELSSLRSEDTAVYYCARYGYGREVFDYWGQGTTVTVSS
VL 1: DIVLTQSPDSLAVSLGERATISCKASQSVDYDGDSYMNWYQKKPGQPPKILIYDASNLESGIPARFSGSGSGTDFTLTISSLEPEDFAIYYCQQSNEDPWTFGGGTKVEIK
VH 2: QVQLVQSGAEVKKPGASVKVSCKASGYTFTRYYLNWVRKAPGQGLEWIGMIDPSVSETHYAQKFQGRATLTVDKSTSTAYMELSSLRSEDTAVYYCSQIRLPYYYAMDSWGQGTTVTVSS
VL 2: DIQMTQSPSSLSASVGDRVTITCRASQDIESFLNWYQEKPGKAPKLLIYYTSRLQSGVPSRFSGSGSGTDYTLTISSLQPEDFATYYCQQGNTLPRTFGGGTKVEIK
notes: IgG1-NNAS Fc, dK, with charge pairing mutations; The starred variable domains are used, as for m5
B3: aC1s_088 × 531v25 IgG1-NNAS/dK (bispecific antibody, V domains shown)
VH 1: QVQLVQSGAEVKKPGASVKLSCTASGFNIKDDYIHWVKEAPGQGLEWIGRIDPADGHTKYAPKFQVKVTITADTSTSTAYLELSSLRSEDTAVYYCARYGYGREVFDYWGQGTTVTVSS
VL 1: DIVLTQSPDSLAVSLGERATISCKASQSVDYDGDSYMNWYQKKPGQPPKILIYDASNLESGIPARFSGSGSGTDFTLTISSLEPEDFAIYYCQQSNEDPWTFGGGTKVEIK
VH 2: QVQLVQSGAEVKKPGASVKVSCKASGYTFTRYYLNWVRKAPGQGLEWIGMIDPSVSETHYAQKFQGRATLTVDKSTSTAYMELSSLRSEDTAVYYCSQIRLPYYYAMDSWGQGTTVTVSS
VL 2: DIQMTQSPSSLSASVGDRVTITCRASQDISSFLNWYQEKPGKAPKLLIYYTSRLQSGVPSRFSGSGSGTDYTLTISSLQPEDFATYYCQQGNTLPRTFGGGTKVEIK
notes: as for B2
B4: aC1s_088 IgG1-dK (antibody, V domains shown)
VH: QVQLVQSGAEVKKPGASVKLSCTASGFNIKDDYIHWVKQAPGQGLEWIGRIDPADGHTKYAPKFQVKVTITADTSTSTAYLELSSLRSEDTAVYYCARYGYGREVFDYWGQGTTVTVSS
VL: DIVLTQSPDSLAVSLGERATISCKASQSVDYDGDSYMNWYQQKPGQPPKILIYDASNLESGIPARFSGSGSGTDFTLTISSLEPEDFAIYYCQQSNEDPWTFGGGTKVEIK
B5: aC1s_D32E IgG1-dK (antibody, V domains shown)
VH: QVQLVQSGAEVKKPGASVKLSCTASGFNIKDDYIHWVKQAPGQGLEWIGRIDPADGHTKYAPKFQVKVTITADTSTSTAYLELSSLRSEDTAVYYCARYGYGREVFDYWGQGTTVTVSS
VL: DIVLTQSPDSLAVSLGERATISCKASQSVDYEGDSYMNWYQQKPGQPPKILIYDASNLESGIPARFSGSGSGTDFTLTISSLEPEDFAIYYCQQSNEDPWTFGGGTKVEIK
modifications: Y36 sulfation: Yes

Legend:
[1] = target: T1, Human active C1s (Complement Technology); assay: cell-based or functional assay
[2] = target: T1, Human active C1s (Complement Technology); assay: SPRi Carterra LSA, antibody captured on protein A/G, human active C1s as analyte, 25 C, 1:1 fit
Method: C1s binding using surface plasmon resonance (SPRi): Analysis of active C1s binding was performed on a Carterra LSA SPRi instrument at 25° C. Protein A/G (Sigma) diluted in 25 mM MES pH 6.0, 0.05% Tween-20 running buffer was covalently immobilized to an HC200M sensor chip using amine coupling. Antibodies were diluted to 0.2 μg/mL in HBS-EP+ buffer and printed in duplicate to the protein A/G surface in the capture 96-array format for 5 min followed by a 1 min baseline in buffer. Human active C1s (Complement Technology) was serially diluted […] from 1 μM to 0.781 nM in running buffer and injected over the captured antibodies for 5 min with a 5 min dissociation time. The surface was regenerated with 10 mM glycine pH 1.5 with two 30 sec injections. Sensorgrams were processed with the Carterra® K.I.T. Inspection Tool and fit to a 1:1 binding model to obtain kinetic constants.
Three variants were selected as viable engineered alternatives to the wild-type anti-aC1s sequence: D32E, D32S, and D32Y. The three variants were expressed as bivalent monospecific anti-aC1s antibodies with human IgG1 and their affinity for aC1s tested by surface plasmon resonance (Table 5).

[3] = target: T1, Human active C1s (Complement Technology); assay: cell-based or functional assay; remark: listed apart in the source
[4] = target: T1, Human active C1s (Complement Technology); assay: cell-based or functional assay; remark: listed apart in the source
[5] = target: T1, Human active C1s (Complement Technology); assay: SPR Biacore T200, antibody captured on anti-human Fc, human active C1s as analyte, 1:1 fit
Method: (§1) TfR and C1s binding using surface plasmon resonance (SPR): Analysis of antibody binding to TfR was performed on a Biacore™ T200 instrument using anti-His capture at 25° C. Anti-His (Qiagen) was buffer exchanged into PBS pH 7.2, diluted to 25 μg/mL in 10 mM sodium acetate pH 4.0 and directly immobilized to a series S CM5 chip to a surface density of ˜10,000 RU using the amine coupling kit provided by Cytiva. His-tagged recombinant human TfR (produced in-house) was diluted in HBS-EP+ pH 7.4 running buffer (10 mM HEPES pH 7.4, 150 mM NaCl, 3 mM EDTA, 0.05% surfactant P20) and injected for 5 sec at 20 μL/min flowrate to obtain capture level of 20 RU. Antibodies were serially diluted 2-fold from 90 to 5.625 nM in running buffer and injected over the captured TfR for 3 min followed by 9 min dissociation in buffer at 30 μL/min. Each cycle was regenerated with 10 mM glycine pH 1.5. To measure C1s binding, anti-human Fc (Jackson) was directly immobilized to a CM5 chip using amine chemistry. Antibodies were diluted to 2.5 μg/mL in HBS-EP+ pH 7.4 and captured to the chip for 15 sec at 20 μL/min flowrate. Human active C1s (Complement Technology) was serially diluted 2-fold from 20 to 0.625 nM in running buffer and injected over the captured antibodies for 180 sec at 50 μL/min followed by 9 min dissociation in buffer. The bound complex was removed from the chip each cycle with 40 mM HCl and 0.85% phosphoric acid. Sensorgrams were processed using the Biacore™ Insight software and fit to a 1:1 binding model to obtain kinetic constants.
(§2) The six bispecific anti-aC1s/anti-TfR antibodies were first tested for their affinity for both TfR and aC1s via surface plasmon resonance (SPR) (Table 2).

[6] = target: T2, His-tagged recombinant human TfR (produced in-house) (human, UniProt P02786 89-760); assay: SPR Biacore T200, His-tagged human TfR captured on anti-His, antibody as analyte, 25 C, 1:1 fit
T2 construct: also called hTfR; transferrin receptor 1
Method: as §1, §2

T2 sequence (P02786 89-760 limits assumed): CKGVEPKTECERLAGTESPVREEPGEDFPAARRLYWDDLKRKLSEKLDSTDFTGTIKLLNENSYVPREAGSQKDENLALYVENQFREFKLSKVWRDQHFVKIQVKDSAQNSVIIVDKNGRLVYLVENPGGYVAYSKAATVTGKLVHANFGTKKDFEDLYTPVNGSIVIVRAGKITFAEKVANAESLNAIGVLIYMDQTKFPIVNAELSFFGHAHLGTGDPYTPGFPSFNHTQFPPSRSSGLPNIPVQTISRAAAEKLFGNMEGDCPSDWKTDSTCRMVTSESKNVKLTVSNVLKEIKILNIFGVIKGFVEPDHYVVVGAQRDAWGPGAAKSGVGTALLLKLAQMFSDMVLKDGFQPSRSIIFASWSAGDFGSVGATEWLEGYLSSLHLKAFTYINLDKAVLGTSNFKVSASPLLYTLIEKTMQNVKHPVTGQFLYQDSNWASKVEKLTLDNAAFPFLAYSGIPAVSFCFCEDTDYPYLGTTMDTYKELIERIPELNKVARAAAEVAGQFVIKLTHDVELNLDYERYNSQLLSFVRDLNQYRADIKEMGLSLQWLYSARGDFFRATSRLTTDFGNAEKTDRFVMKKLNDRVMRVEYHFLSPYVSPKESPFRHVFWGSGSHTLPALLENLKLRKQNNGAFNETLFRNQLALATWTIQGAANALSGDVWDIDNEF

| Binder | IC50, Wieslab Complement Pathway Assay (classical pathway, 1% NHS) [1] | Kd [2] | koff [2] | kon [2] | IC50, Wieslab Complement Pathway Assay (classical pathway, 1% NHS) [3] | IC50, C3d deposition on neurons in iPSC tricultures with serum [4] | Kd [5] | koff [5] | kon [5] | Kd [6] | koff [6] | kon [6] |
| --- | --- | --- | --- | --- | --- | --- | --- | --- | --- | --- | --- | --- |
| B1 | 10.7 µg/mL | 7.3 nM | 0.0065 s⁻¹ | 890000 M⁻¹ s⁻¹ |  |  |  |  |  |  |  |  |
| B2 |  |  |  |  | 1.78 µg/mL | 12.8 µg/mL | 0.69 nM | 0.00272 s⁻¹ | 3.96e+06 M⁻¹ s⁻¹ | 20.3 nM | 0.00332 s⁻¹ | 164000 M⁻¹ s⁻¹ |
| B3 |  |  |  |  | 2.02 µg/mL | 29.7 µg/mL | 0.68 nM | 0.00285 s⁻¹ | 4.22e+06 M⁻¹ s⁻¹ | 24.6 nM | 0.0049 s⁻¹ | 199000 M⁻¹ s⁻¹ |
| B4 | 0.84 µg/mL |  |  |  |  |  |  |  |  |  |  |  |
| B5 | 1.36 µg/mL | 2.5 nM | 0.0032 s⁻¹ | 1.3e+06 M⁻¹ s⁻¹ |  |  |  |  |  |  |  |  |
